From patent US20240117038A1 (Ablynx, published 2024)

T1: cynomolgus CX3CR1 (cynomolgus monkey (Macaca fascicularis), UniProt P49238 1-355 (human entry))
T1 construct: Overexpressed on CHO K1 cells; also called cyno CX3CR1; cyCX3CR1
T1 chain: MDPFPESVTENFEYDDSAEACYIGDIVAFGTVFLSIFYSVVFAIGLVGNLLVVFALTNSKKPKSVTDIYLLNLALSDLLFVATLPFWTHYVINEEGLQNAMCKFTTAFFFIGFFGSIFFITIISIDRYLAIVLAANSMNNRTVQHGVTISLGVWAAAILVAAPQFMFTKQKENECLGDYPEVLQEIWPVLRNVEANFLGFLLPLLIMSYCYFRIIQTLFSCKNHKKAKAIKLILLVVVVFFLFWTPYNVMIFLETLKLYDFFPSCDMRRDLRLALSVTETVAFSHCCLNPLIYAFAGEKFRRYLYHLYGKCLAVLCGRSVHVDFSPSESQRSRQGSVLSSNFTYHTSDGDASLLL

T2: human CX3CR1 V249I/T280M (human, UniProt P49238 1-355)
T2 construct: Transiently transfected in HEK293T cells (pcDNA3.1); also called huCX3CR1 variant V249I and T280M
T2 chain: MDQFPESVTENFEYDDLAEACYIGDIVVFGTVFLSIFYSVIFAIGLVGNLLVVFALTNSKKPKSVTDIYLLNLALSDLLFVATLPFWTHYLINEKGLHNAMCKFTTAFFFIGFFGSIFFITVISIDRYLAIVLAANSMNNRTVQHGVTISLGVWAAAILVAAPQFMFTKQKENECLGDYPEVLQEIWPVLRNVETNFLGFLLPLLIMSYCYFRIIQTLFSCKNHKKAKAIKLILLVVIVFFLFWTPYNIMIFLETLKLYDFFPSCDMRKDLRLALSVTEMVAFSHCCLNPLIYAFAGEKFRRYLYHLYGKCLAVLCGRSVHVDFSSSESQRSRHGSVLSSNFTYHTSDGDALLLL

B1: A041600035 (VHH)
chain: DVQLVESGGGSVQPGGSLRLSCAASGSIFSSTAMAWYRQAPGKQRDLVAVISTVGITKYADSVKGRFTISRDNAKNTVYLQMNSLRPEDTALYYCTSDARRGWDTRYWGQGTLVTVSSGGGGSGGGSEVQLVESGGGSVQPGGSLRLSCAASGSIFSSTAMAWYRQAPGKQRDLVAVISTVGITKYADSVKGRFTISRDNAKNTVYLQMNSLRPEDTALYYCTSDARRGWDTRYWGQGTLVTVSSGGGGSGGGSEVQLVESGGGVVQPGGSLRLSCAASGFTFRSFGMSWVRQAPGKGPEWVSSISGSGSDTLYADSVKGRFTISRDNSKNTLYLQMNSLRPEDTALYYCTIGGSLSRSSQGTLVTVSSA
notes: Trivalent ISVD construct (two anti-CX3CR1 ISVDs, one anti-albumin ISVD), C-terminal alanine included in the entry; also called 54A12_SO (E1D)-9GS-54A12_SO-9GS-ALB23002-A
B2: A041600041 (VHH)
chain: DVQLVESGGGSVQPGGSLRLSCAASGSIFSSTAMAWYRQAPGKQRDLVAVISTVGITKYADSVKGRFTISRDNAKNTVYLQMNSLRPEDTALYYCTSDARRGWDTRYWGQGTLVTVSSGGGGSGGGSEVQLVESGGGSVQPGGSLRLSCAASGSIFSSTAMAWYRQAPGKRRDLVAAINTVGVTKYADSVKGRFTISRDNAKNTVYLQMNSLRPEDTALYYCTSDPRRGWDTRYWGQGTLVTVSSGGGGSGGGSEVQLVESGGGVVQPGGSLRLSCAASGFTFRSFGMSWVRQAPGKGPEWVSSISGSGSDTLYADSVKGRFTISRDNSKNTLYLQMNSLRPEDTALYYCTIGGSLSRSSQGTLVTVSSA
notes: Trivalent ISVD construct (two anti-CX3CR1 ISVDs, one anti-albumin ISVD), C-terminal alanine included in the entry; also called 54A12_SO (E1D)-9GS-66B02_SO-9GS-ALB23002-A
B3: A041600025 (VHH)
chain: DVQLVESGGGSVQPGGSLRLSCAASGSIFSSTAMAWYRQAPGKQRDLVAVISTVGITKYADSVKGRFTISRDNAKNTVYLQMNSLRPEDTALYYCTSDARRGWDTRYWGQGTLVTVSSGGGGSGGGSEVQLVESGGGVVQPGGSLRLSCAASGFTFRSFGMSWVRQAPGKGPEWVSSISGSGSDTLYADSVKGRFTISRDNSKNTLYLQMNSLRPEDTALYYCTIGGSLSRSSQGTLVTVSSGGGGSGGGSEVQLVESGGGSVQPGGSLRLSCAASGSIFSSTAMAWYRQAPGKQRDLVAVISTVGITKYADSVKGRFTISRDNAKNTVYLQMNSLRPEDTALYYCTSDARRGWDTRYWGQGTLVTVSSA
notes: Trivalent ISVD construct (two anti-CX3CR1 ISVDs, one anti-albumin ISVD), C-terminal alanine included in the entry; also called 54A12_SO (E1D)-9GS-ALB23002-9GS-54A12_SO-A
B4: A041600085 (VHH)
chain: DVQLVESGGGLVQPGGSLRLSCAASGSIFSSTAMAWYRQAPGKRRDLVAAISTVGVTKYADSVKGRFTISRDNSKNTVYLQMNSLRPEDTAVYYCTSDPRRGWDTRYWGQGTLVTVSSGGGGSGGGSEVQLVESGGGVVQPGGSLRLSCAASGFTFRSFGMSWVRQAPGKGPEWVSSISGSGSDTLYADSVKGRFTISRDNSKNTLYLQMNSLRPEDTALYYCTIGGSLSRSSQGTLVTVSSGGGGSGGGSEVQLVESGGGLVQPGGSLRLSCAASGSIFSSTAMAWYRQAPGKRRDLVAAISTVGVTKYADSVKGRFTISRDNSKNTVYLQMNSLRPEDTAVYYCTSDPRRGWDTRYWGQGTLVTVSSA
notes: also called 307-9GS-ALB23002-9GS-307 (D1E)-A
B5: A041600034 (VHH)
chain: DVQLVESGGGSVQPGGSLRLSCAASGSIFSSTAMAWYRQAPGKQRDLVAVISTVGITKYADSVKGRFTISRDNAKNTVYLQMNSLRPEDTALYYCTSDARRGWDTRYWGQGTLVTVSSGGGGSGGGSEVQLVESGGGVVQPGGSLRLSCAASGFTFRSFGMSWVRQAPGKGPEWVSSISGSGSDTLYADSVKGRFTISRDNSKNTLYLQMNSLRPEDTALYYCTIGGSLSRSSQGTLVTVSSGGGGSGGGSEVQLVESGGGSVQPGGSLRLSCAASGSIFSSTAMAWYRQAPGKRRDLVAAINTVGVTKYADSVKGRFTISRDNAKNTVYLQMNSLRPEDTALYYCTSDPRRGWDTRYWGQGTLVTVSSA
notes: Trivalent ISVD construct; also called 54A12_SO (E1D)-9GS-ALB23002-9GS-66B02_SO-A

How the values were obtained:
cynomolgus CX3CR1 = molecular target: T1, cynomolgus CX3CR1; test: flow cytometry on CHO K1 cyCX3CR1 cells, 30 uM HSA
Method: (§1) CHO cells overexpressing human or cynomolgus CX3CR1 were generated using techniques known in the art. Cells were harvested and resuspended in assay buffer (PBS, 2% FBS, 0.05% NaN3) and seeded separately in 384-well Bio-One V-bottom plates (Greiner, Cat. No. 781280), with a total of 2E04 cells seeded per well. After washing, serial dilutions of multivalent ISVD construct (starting from 250 nM, 3-fold dilution, 11 points, diluted in assay buffer), were added and incubated for 4 hours at 4° C. Binding was performed in the presence of 30 uM HSA (Sigma-Aldrich, Cat. No. A8763). Plates were then washed 3 times and cells were incubated with an anti-VHH mouse antibody (3300-fold diluted in assay buffer) for 30 minutes at 4′° C. […] Plates were finally washed 3 times and cells were resuspended in PI (Miltenyi Biotec, Cat. No. 130-093-233, 1000-fold diluted in assay buffer). Cell suspensions were analyzed with iQue Screener PLUS (Intellicyt). EC50s were estimated by dose response modelling. Curves were fit using 4 parameter logistic regression in GraphPad (GraphPad Software Inc.). A purified anti-human CX3CR1 antibody [K0124E1] (BioLegend, Cat. No. 355701/355702) was used as positive control to detect CX3CR1 expression on the cell surface.

human CX3CR1 V249I/T280M = molecular target: T2, human CX3CR1 V249I/T280M; test: flow cytometry on transiently transfected HEK293T cells, human CX3CR1 V249I/T280M
Method: as §1, with “After” for “CHO cells overexpressing human or cynomolgus CX3CR1 were generated using techniques known in the art. Cells were harvested and resuspended in assay buffer (PBS, 2% FBS, 0.05% NaN3) and seeded separately in 384-well Bio-One V-bottom plates (Greiner, Cat. No. 781280), with a total of 2E04 cells seeded per well. After”
Two important SNPs are described in huCX3CR1, i.e. V2491 (Rs3732379) and T280M (Rs3732378), which might influence receptor activity and binding by the ISVD. […] Different combinations of these SNPs were introduced in human CX3CR1, and binding by 5 selected multivalent ISVD constructs was assessed with flow cytometry after transient transfection of the huCX3CR1 variants in HEK293T cells.
In short, the CX3CR1 constructs were cloned into pcDNA3.1 (ThermoFisher Scientific, Cat. No. V79020) and plasmid DNA was prepared from Escherichia coli TOP10 cells. HEK293T cells were seeded at a concentration of 1.5E06 cells per T75 flask and incubated overnight at 37° C. in DMEM medium (Gibco, Cat. No. 31966) supplemented with 10% FBS (Sigma. Cat. No. F7524). The medium was then replaced by Opti-MEM medium (Gibco, Cat. No. 31985). A mixture of 9 μg plasmid DNA, 27 μL Fugene 6 (Promega, Cat. No. E2691) in a final volume of 1 mL Opti-MEM was incubated for 15 minutes at room temperature and then added to the cells. After 3 hours incubation at 37° C., 10 mL of DMEM supplemented with 20% FBS was added, and incubation continued.

human CCR5 = molecular target: T3, human CCR5 (human, UniProt P51681 1-352); test: flow cytometry on CHO-K1 cells expressing human CCR5
T3 construct: whole, on cells; also called huCCR5
T3 sequence (P51681 whole entry): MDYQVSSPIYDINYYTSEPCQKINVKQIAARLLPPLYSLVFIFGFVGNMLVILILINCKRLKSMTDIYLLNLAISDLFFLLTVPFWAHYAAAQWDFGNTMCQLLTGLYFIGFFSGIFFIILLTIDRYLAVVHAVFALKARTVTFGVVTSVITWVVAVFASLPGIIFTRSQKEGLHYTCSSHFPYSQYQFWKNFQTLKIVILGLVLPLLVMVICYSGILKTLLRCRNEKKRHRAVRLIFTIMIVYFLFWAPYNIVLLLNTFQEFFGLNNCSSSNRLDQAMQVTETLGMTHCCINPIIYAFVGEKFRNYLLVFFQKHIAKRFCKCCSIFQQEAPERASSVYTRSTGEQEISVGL
Method: as §1
Specificity of the 5 selected multivalent ISVD constructs for the huCX3CR1 receptor was evaluated by performing a FACS binding experiment on CHO-K1 cells expressing human CCR2 or human CCR5. CHO cells overexpressing huCCR2 or huCCR5 were generated using techniques known in the art. Binding of the multivalent ISVD constructs to huCR2 or huCCR5 expressed on the cell surfaces was examined by flow cytometry as described in example 5.1.

Binder | EC50 (cynomolgus CX3CR1) [pM] | top (cynomolgus CX3CR1) | EC50 (human CX3CR1 V249I/T280M) [pM] | binding result (human CCR5)
B1 | 240 | 411000 | 270 | no binding
B2 | 150 | 346000 |  | no binding
B3 | 360 | 266000 | 170 | no binding
B4 | 560 | 186000 |  | no binding
B5 | 450 | 273000 | 90 | no binding
